The experiment has as its target T1, uPAR carrying the S90P substitution (human, UniProt Q03405 23-305, S90P).
T1 construct: human uPAR, whole cDNA in pcDNA3 with S90P made by site-specific mutagenesis, on 293 cells; also called uPAR^S90P; source: on intact adherent cells and in RIPA lysate
In words: radioligand binding; 10 nM ^125I-Vn with increasing unlabeled Vn on adherent transfected 293 clones (2×10^5 cells/well), 3 hours at 4°C, binding buffer DMEM, 1 mg/ml BSA, 10 mM Hepes pH 7.4; surface-bound label recovered by acid wash pH 3.0; apparent Kd; cells also carry endogenous αvβ5. The following applies: one partner purified.

Results on one molecule are retold here after PMC3458052, “Single Amino Acid Substitutions in the Chemotactic Sequence of Urokinase Receptor Modulate Cell Migration and Invasion” (PLoS ONE, 2012).

A word on the IC50: it is the point on the concentration scale where inhibition reaches its midpoint.

T1 sequence (Q03405 23-305 S112P): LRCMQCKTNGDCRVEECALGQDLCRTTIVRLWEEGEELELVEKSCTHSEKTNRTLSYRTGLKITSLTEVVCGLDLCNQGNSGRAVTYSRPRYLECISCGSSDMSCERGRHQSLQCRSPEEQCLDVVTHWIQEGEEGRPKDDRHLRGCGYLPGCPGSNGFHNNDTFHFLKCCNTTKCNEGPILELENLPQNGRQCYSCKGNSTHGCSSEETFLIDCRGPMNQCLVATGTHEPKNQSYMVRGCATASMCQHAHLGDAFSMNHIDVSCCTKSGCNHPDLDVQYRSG

B1: vitronectin (ligand, UniProt P04004 20-478, looked up)
chain: DQESCKGRCTEGFNVDKKCQCDELCSYYQSCCTDYTAECKPQVTRGDVFTMPEDEYTVYDDGEEKNNATVHEQVGGPSLTSDLQAQSKGNPEQTPVLKPEEEAPAPEVGASKPEGIDSRPETLHPGRPQPPAEEELCSGKPFDAFTDLKNGSLFAFRGQYCYELDEKAVRPGYPKLIRDVWGIEGPIDAAFTRINCQGKTYLFKGSQYWRFEDGVLDPDYPRNISDGFDGIPDNVDAALALPAHSYSGRERVYFFKGKQYWEYQFQHQPSQEECEGSSLSAVFEHFAMMQRDSWEDIFELLFWGRTSAGTRQPQFISRDWHGVPGQVDAAMAGRIYISGMAPRPSLAKKQRFRHRNRKGYRSQRGHSRGRNQNSRRPSRATWLSLFSSEESNLGANNYDDYRMDWLVPATCEPIQSVFFFSGDKYYRVNLRTRRVDTVDPPYPRSIAQYWLGCPAPGHL
modifications: ^125I (radio-iodinated with Na^125I using IODO-BEADS) on the tracer; the competitor is unlabeled
notes: vitronectin (Vn), bought from Promega; also called Vn; ^125I-Vn; source: bought: Promega
Regarding B1, the IC50 was around 10 nM.
